In patent US11421026B2, “Antibodies that bind human cannabinoid 1 (CB1) receptor” (BIRD ROCK BIO, Inc., priority 2015, dated 2022):

B1: PA13R3-P1C4: phage-derived chimeric anti-CB1 IgG; HC variable SEQ ID NO: 2, LC variable SEQ ID NO: 6 (antibody, V domains shown)
VH: EVQLQQSGAELVRPGVSVKISCKASGYEFSYYWMNWVKQRPGQGLEWIGQIYPGDGETKYNGKFKGKATLTADKSSNTAYMQLSSLTSEDSAVYFCARSHGNYLPYWGQGTLVTVSA
VL: DIVLTQSPAIMSASLGERVTMTCTASSSVSSSYLHWYQQKPGSSPKLWIYSTSNLASGVPARFSGSGSGTSYSLTISSMEAEDAATYYCHQYHRSPPTFGAGTKLELK
modifications: PA13R3-P1C4 Heavy chain variable region; PA13R3-P1C4 Light chain variable region
B2: PA13R3-P1C4 Fab: Fab fragment of chimeric PA13R3-P1C4 (antibody, V domains shown)
VH: EVQLQQSGAELVRPGVSVKISCKASGYEFSYYWMNWVKQRPGQGLEWIGQIYPGDGETKYNGKFKGKATLTADKSSNTAYMQLSSLTSEDSAVYFCARSHGNYLPYWGQGTLVTVSA
VL: DIVLTQSPAIMSASLGERVTMTCTASSSVSSSYLHWYQQKPGSSPKLWIYSTSNLASGVPARFSGSGSGTSYSLTISSMEAEDAATYYCHQYHRSPPTFGAGTKLELK
B3: 36E12B6C2: hybridoma-derived anti-CB1 mAb; HC variable SEQ ID NO: 18, LC variable SEQ ID NO: 22 (antibody, listed as Mus sp., V domains shown)
VH: QVQLQQSGAELVRPGSSVKISCKASGYEFSYYWMNWVKQRPGQGLQWIGQIYPGDGDTNYNGKFKGKATLTADKSSSTAYMHLTSLTSEDSAVYFCARSGGNPFAFWGQGTLVTVSA
VL: DIQMTQTSSSLSASLGDRVTFSCRASQDISNYLNWYQQKPDGTVKLLIYYTSRLHSGVTSRFRGSGSGTDYSLTISNLEQEDVATYFCQQGHTLPWSFGGGTKLEIK

Key:
[1] = target: T1, CB1 (TRex-CHO cells stably expressing human CB1) (Homo sapiens, UniProt P21554); type: cell-based
T1 construct: pcDNA4/TO native full length human CB1 receptor construct was transfected into tetracycline inducible system Trex-CHO and Trex-293 cells; expressed in transfected cells
T1 sequence (P21554 whole entry): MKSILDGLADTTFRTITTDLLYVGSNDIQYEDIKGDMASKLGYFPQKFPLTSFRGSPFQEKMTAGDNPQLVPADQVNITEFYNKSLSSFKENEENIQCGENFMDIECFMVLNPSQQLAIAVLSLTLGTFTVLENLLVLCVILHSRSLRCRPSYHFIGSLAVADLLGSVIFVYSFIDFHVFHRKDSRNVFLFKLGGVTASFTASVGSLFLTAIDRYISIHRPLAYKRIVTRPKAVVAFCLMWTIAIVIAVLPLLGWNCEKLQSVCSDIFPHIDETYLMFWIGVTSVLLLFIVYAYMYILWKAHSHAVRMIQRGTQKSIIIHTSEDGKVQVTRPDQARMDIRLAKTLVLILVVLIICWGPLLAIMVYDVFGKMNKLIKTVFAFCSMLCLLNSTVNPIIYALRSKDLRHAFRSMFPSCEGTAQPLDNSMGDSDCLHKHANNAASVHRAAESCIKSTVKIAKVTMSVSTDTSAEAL
Method: A cAMP functional assay was performed to measure the antagonism of the antibodies. […] Data analysis was performed using GraphPad Prism.
Cell numbers, forskolin concentration and CP55,940 concentration were optimized according to the manufacturer's instructions. The cAMP antagonist functional assay was performed in white 384-well low volume plates (Greiner). […] Data analysis was performed using GraphPad Prism.
Data analysis was performed using GraphPad Prism. The mean±SD of IC50s and dissociation constants (Kd) shown were measured from at least 2 different experiments.
After 30 minutes incubation at 22° C., 5 μL cAMP-d2 and 5 μL anti-cAMP cryptate were added to the cells and incubated for 1 hour. […] Data analysis was performed using GraphPad Prism.

[2] = system: denatured CB1 protein (His tagged, N/C-termini truncated human CB1); assay: Western blot recognition of denatured CB1 protein; type: binding; conditions: 2 μg/mL
Method: A study was performed to examine whether PA13R3-P1C4 and its humanized variant antibodies recognize epitope(s) on denatured CB1 protein (His tagged, N/C-termini truncated CB1) by western blot analysis. Purified human CB1 protein (750 ng per lane) was mixed with SDS reducing buffer containing beta-mercaptoethanol (Double Helix). […] Membranes were blocked with 5% NFDM/PBS-T for one hour at 22° C. followed by immune-blotting with test antibodies (2 μg/mL) in 5% NFDM/PBS-T overnight at 4° C. Commercial mouse anti-His antibody and mouse anti-CB1 antibody (R&D Systems) were used as positive controls, and rabbit anti-CB1 antibody (Cayman), which recognizes a C-terminal region that was deleted from the recombinant CB1 protein used in this study, served as a negative control.
After overnight incubation, membranes were washed with 0.5% Tween-20 PBS (PBS-T) three times at 22° C. Secondary antibodies AP-conjugated anti-human IgG (1:5000) or anti-mouse IgG or anti-rabbit IgG in 5% NFDM/PBS-T were added to respective membranes and incubated for 1 hour at 22° C. Membranes were washed three times with PBS-T each for 5 minutes. After the final wash, signal was developed by incubating with NBT/BCIP substrate solution at 22° C. and the reaction was stopped by washing the membrane under running water.

[3] = system: CB1 receptor signaling, WIN55,212 induced ERK phosphorylation in Trex-CHO CB1 receptor cells; assay: ERK activation assay (western blot); type: cell-based, human; conditions: IgG 300 nM; WIN55,212 100 nM, 10 and 15 minutes
Method: (§1) Two days before the experiment, Trex-CHO CB1 receptor cells were seeded at 500,000 cells/well into 6-well plates. 1 μg/mL tetracycline was used to induce CB1 receptor expression after 24 hours. Cells were serum starved for at least two hours before the experiment. […] Cell lysates were harvested and the level of ERK activation was determined by western blot. Anti-ERK and Anti-phospho-specific ERK antibodies were obtained from Cell Signaling Inc.
as §1, with “Trex-CHO CB1 receptor-expressing cells were” for “Trex-CHO CB1 receptor cells were”

[4] = target: T2, CB1 surface expression (CB1 TRex-CHO / TRex-293 cells) (Homo sapiens, UniProt P21554); type: cell-based; conditions: tetracycline induced, humanized variants
T2 construct: pcDNA4/TO native full length human CB1 receptor construct was transfected into tetracycline inducible system Trex-CHO and Trex-293 cells; expressed in transfected cells; tetracycline induced
T2 sequence (P21554 whole entry): as above

[5] = target: T3, human CB1 expressing TRex-CHO cells (Homo sapiens, UniProt P21554); type: cell-based; conditions: forskolin stimulated TRex-CHO CB1 cells
T3 construct: pcDNA4/TO native full length human CB1 receptor construct was transfected into tetracycline inducible system Trex-CHO and Trex-293 cells; expressed in transfected cells
T3 sequence (P21554 whole entry): as above
Method: Data analysis was performed using GraphPad Prism software.
Data analysis was performed using GraphPad Prism.

[6] = target: CB1 receptor (TRex-CHO CB1 cells) (Homo sapiens, UniProt P21554); assay: Flow cytometry binding of P1C4 Fab
Chain of CB1 receptor (TRex-CHO CB1 cells) (P21554 whole entry): as above
Method: To determine PA13R3-P1C4 Fab binding affinity, full binding curves were generated on CB1 receptor by testing a range of concentrations using TRex-CHO cells stably transfected with tetracycline inducible CB1 expression construct by flow cytometry. Three-fold serial dilutions from 3 μM to 0.1 μM were prepared. FITC-conjugated anti-human antibody was used to detect PA13R3-P1C4 Fab.

Row | Molecule | effect on CP55,940-induced reduction in intracellular cAMP levels [1] | IC50 ([1]; all batches, 5 μM forskolin, 9 nM CP55,940, read-out: cAMP IC50 Mean ± SD) | recognition of denatured CB1 protein [2] | block of WIN55,212 induced ERK phosphorylation [3] | inhibition of WIN55,212 induced CB1 receptor internalization [4] | effect on cAMP levels without exogenous agonist / mechanism [5] | binding to TRex-CHO CB1 cells [6]
1 | B1 | dose-dependently inhibited | 138 ± 21 nM | could not recognize denatured and linearized CB1 protein | blocked | inhibited | inverse agonists | –
2 | B2 | – | – | – | – | – | – | dose dependently bound
3 | B3 | – | – | – | blocked | – | inverse agonists | –
